From publication PMC4358236 (The Journal of Biological Chemistry, 2015)

Target: the molecule itself
Test: SEC-MALS

B1: VACV protein N1 with C-terminal His6 tag (natural protein)
chain: MRTLLIRYILWRNDNDQTYYNDNFKKLMLLDELVDDGDVCTLIKNMRMTLSDGPLLDRLNQPVNNIEDAKRMIAISAKVARDIGERSEIRWEESFTILFRMIETYFDDLMIDLYGEK
stoichiometry N: 2
